Experimental findings from patent publication EP3515493A1 are described below.

This assay addresses HLA-DR, human (human). In words: cell-based or functional assay.

In turn, Lym-1 CAR showed a lysis rate (LDH cytotoxicity assay, Raji target cells) of 22%. Lym-2 CAR: the lysis rate (LDH cytotoxicity assay, Raji target cells) worked out at 22%.
